Data reported in the supplement of paper PMC10567573.

B1: TOR1AIP2 (parent)
chain: YKYCDHENAAFKDVALVLTVLLEE
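Further: lentivirally expressed fusions sorted by FACS into six bins by GFP to DsRed ratio, PSI derived from sequencing read proportions per bin multiplied by bin number.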

Variants of: B1
Assay: protein stability index of a GFP-peptide fusion (GPS, HEK-293T) (PSI 1-6); higher = more stable
Conditions: c terminus: a fixed tail appended
For YKYCDHENAAFKDVALPLTVLLEE, the protein stability index was 3.33.
YKYCDHENAAFKDVALWLTVLLEE showed a protein stability index of 2.31.
Variant YKYCDHENAAFKDVALYLTVLLEE has a protein stability index of 3.19.
In the case of YKYCDHENAAFKDVALNLTVLLEE, the protein stability index is reported as 2.3.
YKYCDHENAAFKDVALSLTVLLEE gave a protein stability index of 3.6.
YKYCDHENAAFKDVALMLTVLLEE showed a protein stability index of 1.94.
Variant YKYCDHENAAFKDVALFLTVLLEE has a protein stability index of 2.66.
Variant YKYCDHENAAFKDVALQLTVLLEE has a protein stability index of 1.84.
For YKYCDHENAAFKDVALELTVLLEE, the protein stability index was 2.51.
YKYCDHENAAFKDVALGLTVLLEE showed a protein stability index of 2.05.
YKYCDHENAAFKDVALKLTVLLEE gave a protein stability index of 1.89.
YKYCDHENAAFKDVALRLTVLLEE gave a protein stability index of 1.73.
YKYCDHENAAFKDVALVLTVLLCE showed a protein stability index of 4.77.
For YKYCDHENAAFKDVALVLTVLLLE, the protein stability index was 5.46.
For YKYCDHENAAFKDVALVLTVLLIE, the protein stability index was 2.81.
With YKYCDHENAAFKDVALVLTVLLPE the protein stability index was 4.
YKYCDHENAAFKDVALVLTVLLAE gave a protein stability index of 3.33.
With YKYCDHENAAFKDVALVLTVLLQE the protein stability index was 2.07.
YKYCDHENAAFKDVALVLTVLLHE gave a protein stability index of 2.89.
For YKYCDHENAAFKDVALVLTVLLNE, the protein stability index was 2.26.
YKYCDHENAAFKDVALVLTVLLEI showed a protein stability index of 3.78.
Work on YKYCDHENAAFKDVALVLTVLLEK yielded a protein stability index of 2.19.
Work on YKYCDHENAAFKDVALVLTVLLEH yielded a protein stability index of 3.71.
Work on YKYCDHENAAFKDVALVLTVLLEN yielded a protein stability index of 3.74.
YKYCDHENAAFKDVALVLTVLLEA gave a protein stability index of 2.84.
YKYCDHENAAFKDVALVLTVLLER gave a protein stability index of 3.2.
In the case of YKYCDHENAAFKDVALVLTVLLEY, the protein stability index is reported as 2.58.
Variant YKYCDHENAAFKDVALVLTVLLED has a protein stability index of 2.86.
Variant YKYCDHENAAFKDVALVLTVLLES has a protein stability index of 3.26.
YKYCDHENAAFKDVALVLTVLLEF showed a protein stability index of 3.27.
YKYCDHENAAFKDVALVLTKLLEE showed a protein stability index of 2.03.
Variant YKYCDHENAAFKDVALVLTMLLEE has a protein stability index of 4.6.
YKYCDHENAAFKDVALVLTHLLEE gave a protein stability index of 1.46.
Work on YKYCDHENAAFKDVALVLTQLLEE yielded a protein stability index of 1.56.
Work on YKYCDHENAAFKDVALVLTELLEE yielded a protein stability index of 1.73.
Work on YKYCDHENAAFKDVALVLTSLLEE yielded a protein stability index of 1.41.
Variant YKYCDHENAAFKDVALVLTPLLEE has a protein stability index of 2.23.
For YKYCDHENAAFKDVALVLTNLLEE, the protein stability index was 2.29.
For YKYCDHENAAFKDVALVLTCLLEE, the protein stability index was 2.82.
YKYCDHENAAFKDVALVLTGLLEE showed a protein stability index of 2.83.
Variant YKYCDHENAAFKDVALVLTALLEE has a protein stability index of 1.06.
Variant YKYCDHENAAFKDVALVLTTLLEE has a protein stability index of 2.03.
YKYCDHENAAFKDVALVLTRLLEE showed a protein stability index of 2.03.
Work on YKYCDHENAAFKDVALVLTDLLEE yielded a protein stability index of 2.21.
YKYCDHENAAFKDVALVLTYLLEE showed a protein stability index of 3.45.
In the case of YKYCDHENAAFKDVALVLTVLDEE, the protein stability index is reported as 2.07.
YKYCDHENAAFKDVALVLTVLREE showed a protein stability index of 2.7.
YKYCDHENAAFKDVALVLTVLYEE showed a protein stability index of 3.23.
With YKYCDHENAAFKDVALVLTVLQEE the protein stability index was 1.
Variant YKYCDHENAAFKDVALVLTVLNEE has a protein stability index of 3.49.
For YKYCDHENAAFKDVALVLTVLAEE, the protein stability index was 3.63.
With YKYCDHENAAFKDVALVLTVLSEE the protein stability index was 1.12.
For YKYCDHENAAFKDVALVLTVLHEE, the protein stability index was 2.53.
YKYCDHENAAFKDVALVLCVLLEE gave a protein stability index of 5.95.
With YKYCDHENAAFKDVALVLMVLLEE the protein stability index was 2.87.
For YKYCDHENAAFKDVALVLKVLLEE, the protein stability index was 4.43.
In the case of YKYCDHENAAFKDVALVLHVLLEE, the protein stability index is reported as 1.67.
In the case of YKYCDHENAAFKDVALVLFVLLEE, the protein stability index is reported as 2.68.
In the case of YKYCDHENAAFKDVALVLRVLLEE, the protein stability index is reported as 4.55.
In the case of YKYCDHENAAFKDVALVLLVLLEE, the protein stability index is reported as 3.88.
With YKYCDHENAAFKDVALVLNVLLEE the protein stability index was 2.25.
With YKYCDHENAAFKDVALVLPVLLEE the protein stability index was 1.74.
With YKYCDHENAAFKDVALVLDVLLEE the protein stability index was 1.3.
YKYCDHENAAFKDVALVLTVGLEE gave a protein stability index of 1.05.
With YKYCDHENAAFKDVALVLTVWLEE the protein stability index was 2.84.
YKYCDHENAAFKDVALVLTVTLEE showed a protein stability index of 4.25.
With YKYCDHENAAFKDVALVLTVILEE the protein stability index was 2.99.
Work on YKYCDHENAAFKDVALVLTVPLEE yielded a protein stability index of 1.73.
Variant YKYCDHENAAFKDVALVLTVQLEE has a protein stability index of 1.73.
YKYCDHENAAFKDVALVLTVDLEE gave a protein stability index of 2.29.
YKYCDHENAAFKDVALVLTVSLEE gave a protein stability index of 1.5.
YKYCDHENAAFKDVALVLTVCLEE gave a protein stability index of 1.47.
With YKYCDHENAAFKDVALVLTVMLEE the protein stability index was 2.03.
Work on YKYCDHENAAFKDVALVATVLLEE yielded a protein stability index of 1.91.
With YKYCDHENAAFKDVALVHTVLLEE the protein stability index was 2.77.
In the case of YKYCDHENAAFKDVALVFTVLLEE, the protein stability index is reported as 2.
For YKYCDHENAAFKDVALVYTVLLEE, the protein stability index was 1.43.
YKYCDHENAAFKDVALVQTVLLEE gave a protein stability index of 3.16.
Variant YKYCDHENAAFKDVALVITVLLEE has a protein stability index of 4.54.
Variant YKYCDHENAAFKDVALVPTVLLEE has a protein stability index of 3.09.
Variant YKYCDHENAAFKDVALVDTVLLEE has a protein stability index of 4.76.
In the case of YKYCDHENAAFKDVALVCTVLLEE, the protein stability index is reported as 1.6.
For YKYCDHENAAFKDVALVGTVLLEE, the protein stability index was 3.58.
For YKYCDHENAAFKDVALVSTVLLEE, the protein stability index was 3.57.
For YKYCDHENAAFKDVALVTTVLLEE, the protein stability index was 1.96.
YKYCDHENAAFKDVALVETVLLEE gave a protein stability index of 3.93.
Work on YKYCDHENAAFKDVALVNTVLLEE yielded a protein stability index of 3.26.
For YKYCDHENAAFKDVALVRTVLLEE, the protein stability index was 2.16.
Variant YKYCDHENAAFKDVALVKTVLLEE has a protein stability index of 3.17.
